Assay [1] has as its system human tumor cell lines of diverse origin (HCT8, DLD1, PC3, HTB9, Suit2, MCF7). Nature of the assay: Cell death assays (PrestoBlue, MTS) in tumor cell lines. The assay is classed as cell-based. The note with it: 48 hours. How it is done:
(§1) For cell death experiments, cells were grown on 96-well plate (1×10^4/well, Tecan Group Ltd) overnight and treated with MakA at different concentration for 48 hours at +37° C., 5% CO2. Cell death was quantified by two different biochemical methods: (1) reduction in PrestoBlue staining; and (2) reduction in MTS absorbance. Cell death is expressed as percentage (%) of untreated control cells for PrestoBlue assay or reduction in absorbance for MTS assay.
(§2) However, overexpression of at least three components (makCBA) or whole operon (makDCBA) was required for induction of lethality to C. elegans (FIG. 1A). The effect of purified MakA protein was investigated on in vitro cultured human tumor cell lines of diverse origin (HCT8 and DLD1=colon cancer cell, PC3=Prostate cancer cells, HTB9=Bladder cancer cell, PC3=Prostate cancer cell, Suit2=Pancreatic cancer cell, MCF7=Breast cancer cells).

The subject of assay [2] is non-transformed colon cells (CCD-18Co and CCD 841 CoN), prostate (PNT1A) and oral fibroblasts (PDL1). The experiment in a line: Cell death assays in non-transformed cells. The following applies: at the concentration that effectively killed carcinoma cells. The assay is classed as cell-based, human. How it is done: as §1, §2
Assay [3] concerns HCT8 cells. Nature of the assay: Apoptotic cell death by flow cytometry. In kind it is cell-based, human. The note with it: 48 h. How it is done: For cell death analysis, cells were treated with MakA or vehicle control for 48 h and were subjected to flow cytometry analysis for apoptotic cell death measurement using either Annexin V/Propidium iodide or Annexin V/7AAD (BD Pharmingen) staining according to manufactures instruction. Percentage of apoptotic cells was determined by BD LSRII and BD Accuri C6 flow cytometer (BD Bioscience), respectively.
Apoptotic cell death in response to MakA was investigated using flow cytometry and fluorescent microscopy.
Background: Flow cytometry measures light scatter and fluorescence of single cells or particles in a stream.

The subject of assay [4] is colon carcinoma cells. Nature of the assay: Fluorescence and confocal microscopy of apoptosis markers. The assay is classed as cell-based, human. An excerpt:
(§3) A) MakA induces concentration-dependent apoptotic cell death in HCT8 cells. B) Quantification of flow cytometry events from (A). […] Scale bar=50 μm. D) MakA induces fragmentation of tumor cell nuclei. Scale bar=10 μm E) Accumulation of Bax (green) to the mitochondria of apoptotic cells by MakA. DAPI was used as a nuclear marker. Scale bar=10 μm. F) MakA caused loss of mitochondrial potential in colon carcinoma cells as evident by loss of DiOC6 staining, quantified by flow cytometry. G) MakA causes activation of pro-apoptotic proteins including caspase 3, cytochrome C and Bax and suppression of antiapoptotic protein, Bcl2.
(§4) Colon carcinoma cells were grown on 8-well chamber slide (3×10^4/well, Millipore) overnight, followed by treatment with MakA for 6 or 24 hours and treated with either Alexa-568 labelled or unlabeled MakA (500 nM), fixed with 2% paraformaldehyde (20 min), permeabilized with Triton X (0.25%). Cells were incubated with anti-Ki67 (1:300), anti-β-catenin (1:300), anti-pAKT (1:100) primary antibodies overnight at +4° C., followed by incubation with corresponding Alexa-488 or Alex-568 conjugated secondary antibodies (1:200) for 1 hour. Finally, cells were counterstained with nuclear marker DAPI for 5 min. Slides were mounted with Fluoromount™ aqueous mounting medium (Sigma) and examined using EZC1 Eclipse laser scanning confocal microscope (Nikon), using 63×/1.4 plan Apo ns lens. Images were captured and processed using the NIS-Elements (Nikon) and ImageJ software.

The test system of assay [5] is colon carcinoma cells. Nature of the assay: Mitochondrial potential by DiOC6 staining, flow cytometry. In kind it is cell-based, human.
From the text: as §3

The next assay concerns tumor cell membrane. The experiment in a line: Transmission electron microscopy of membranes. The assay is classed as cell-based. The note with it: versus vehicle (Tris 20 mM). An excerpt:
To address if MakA accumulation at the cell surface may play an important role in tumor cell membrane perturbation, cells treated with MakA were compared to untreated cells and imaged with transmission electron microscopy (TEM). […] The mitochondrial damage was confirmed by confocal microscopy (FIG. 4B).

Assay [6] deals with β-catenin in HCT8 and DLD1 cells. The experiment in a line: β-catenin signaling in colon cancer cells (western blot, fractionation, confocal). The assay is classed as cell-based, human. How it is done: as §4
To examine whether MakA affects β-catenin signaling in human colon cancer cells, HCT8 and DLD1 cells carrying mutations that inactivates APC tumor suppressor gene (Mouradov, D. et al. (2014) Cancer Res. 2014 Jun. 15; 74(12):3238-47) were used.
To address if MakA decreases the nuclear accumulation of β-catenin, cells were treated with MakA and fractionated into cytoplasmic and nuclear fractions.
As caspase-3 mediated fragmentation of β-catenin has been reported (Steinhusen, U. et al. (2000) J Biol Chem 275: 16345-16353), its role in MakA induced β-catenin fragmentation was investigated.

The test system of another assay is tumor cell proliferation. The experiment in a line: Colony forming assay. In kind it is cell-based. An excerpt:
The effect of MakA on tumor cell proliferation was investigated.

Assay [7] concerns Ki67, cyclin D1, VEGF in HCT8 and DLD1 cells. The experiment in a line: Ki67, cyclin D1 and VEGF expression. In kind it is cell-based, human.
Another assay has as its system tumor cell migration. The experiment in a line: Tumor cell migration. The assay is classed as cell-based.
The subject of assay [8] is HCT8 cells. The experiment in a line: MakA with 5FU, tumor cell morphology. In kind it is cell-based, human. The note with it: HCT8, compared to untreated control. How it is done: B) Change in tumor cell morphology in response to MakA and 5FU or MakA at different concentration in combination with 5FU (20 μM). Scale bar=30 μm
Further, the effect on tumor cell morphology was investigated. Unlike 5FU or MakA alone, the combination of MakA and 5FU caused massive changes in tumor cell morphology (FIG. 8B).

Assay [9] has as its system PIP5K1α, PLCβ, caspase-3 in HCT8 cells. Nature of the assay: Immunoblot of phospholipid signaling proteins. The following applies: HCT8, MakA 500 nM. In kind it is cell-based, human. How it is done:
The effects of MakA on PIP5K1α, PLCβ, actin and caspase-3 were investigated. For immunoblot analysis, HCT8 cells treated with control or MakA toxin were collected and lysed with lysis buffer containing (50 mM Tris, 100 mM NaCl, 1 mM EDTA, 1 mM DTT, 1% Triton X 100, 2% SDS with 1× protease inhibitor cocktail and 1× phosphatase inhibitor). Protein samples were resolved on SDS-PAGE and processed for immunoblotting according to standard procedures. Antisera used were anti-PIP5K1a polyclonal antiserum (1:2000), anti-PLCβ polyclonal antiserum (1:2000), anti-actin polyclonal antiserum (1:5000), and anti-caspase 3 antiserum (1:1000) (all from Cell Signaling Technology, Inc).
(In western blotting, separated proteins are transferred to a membrane and probed.)

The test system of another assay is C. elegans. The note with it: MakA overexpressed in E. coli; cited from earlier work.
Where [10] appears, read: western blot, HCT8 and DLD1 cells.

B1: MakA (protein, listed as Vibrio cholerae)
chain: MSQQVTQLNPTQQTTQSAFLATTVITAQCHAILNTQFTPPTVKPDWFDDLSKKLDSAKLVAKQWIDDLGPQVSASIPSSVINFDATFQASIDAIHELYKADPTASGKDNTTVQQASQIMTALSSQVSGIEATVKGMNKELSDWGVKMQAAHDDLVNGATNIQKTIIDLQTDIESMNNAIDNNRAAIEKLNKDLVYAQVAVGVGIFMLVAGVALTVATAGTAAAVSGGIAAVGAASIIAGGVTWGVLQNQIDDDYDSIAQEQKQKAEDQQQIIALQGLSNASSAVVSAIETSTSVLSDFETTWTVFGNELDDVVTKLNNGASMQSIIMEKVMSDAAKNEWDDAVELAKQLASAKIAIETKELAPAVKQAA
Turning to B1, in [1], the “cell death in tumor cells” value is recorded as “induces cell death in diverse range of tumor cells in a dose-dependent manner”. Moreover, in [2], the “sensitivity of non-transformed cells to MakA” value was “largely unaffected or intermediately sensitive”. Further, in the assay with HCT8 cells [3], the “early and late apoptotic cell death” value is “dose-dependent increase in both early and late apoptotic cell death”. Further, in the assay on colon carcinoma cells [4], the “Bax accumulation to mitochondria” value was “causes accumulation of active Bax to the mitochondria of an apoptotic cell” and the “plasma membrane permeabilization (uptake of propidium iodide)” value is recorded as “causes permeabilization of tumor cell plasma membrane”. The “nuclear staining of apoptotic cells” value in the assay on colon carcinoma cells [4] (fluorescence and confocal microscopy) is “nuclear fragmentation and chromatin condensation”. Also, in the assay with colon carcinoma cells [5], the mitochondrial membrane potential entry was “caused depolarization of the mitochondrial membrane”. Also, in the assay on tumor cell membrane, the “nuclear membrane by TEM” value is given as “irregular thin nuclear membrane indicating its damage”; the “plasma membrane and mitochondria by TEM” value was “induced plasma membrane remodelling and mitochondrial damage”. The β-catenin expression entry in [6] (HCT8 and DLD1 cells) was “caused suppression of β-catenin expression in both HCT8 and DLD1 cells”. In [6] (compared to untreated control), the β-catenin localization result is “accumulate at the plasma membrane”. Moreover, in assay [6] (fractionated cells), the “β-catenin expression in cytoplasmic and nuclear fractions” value is “caused reduction in β-catenin expression both in cytoplasmic and nuclear fractions”. In addition, the β-catenin fragmentation result in [6] (setting [10]) is “β-catenin fragmentation was detected”. Besides, in the assay with tumor cell proliferation, the tumor cell proliferation entry is on record as “caused significant reduction in tumor cell proliferation”. For the same molecule, in assay [7], the Ki67 positive cells entry is “reduction in number of Ki67 positive cells” and the “cyclin D1 expression” value is “reduction in cyclin D1 expression”. Also, the “expression of VEGF” value in assay [7] (setting [10]) was “inhibited in both HCT8 and DLD1 cells”. Further, the tumor cell migration result in the assay with tumor cell migration is “caused suppression of tumor cell migration in a dose dependent manner”. Also, the tumor cell morphology result in the assay on HCT8 cells [8] is given as “caused rounding of the cells”. For the same molecule, in assay [9], the “cleaved caspase-3” value is listed as “expression of cleaved caspase-3 was also observed”, the “level of PIP5Kα” value was “efficiently reduce the level of PIP5Kα” and the “level of PLC-β” value is “reduced level of PLC-β”. The “lethality to C. elegans” value with C. elegans is “not lethal to C. elegans”.
